Measured values: patent publication US12624112 (MABWELL SHANGHAI BIOSCIENCE, dated 2026)
Substitutions are numbered along the chain they refer to.

T1: ST2 on the effector cells (KU812, KU812/NF-κB-1#, HUVEC, HMC-1) (human, UniProt Q01638 19-556)
T1 sequence (looked up): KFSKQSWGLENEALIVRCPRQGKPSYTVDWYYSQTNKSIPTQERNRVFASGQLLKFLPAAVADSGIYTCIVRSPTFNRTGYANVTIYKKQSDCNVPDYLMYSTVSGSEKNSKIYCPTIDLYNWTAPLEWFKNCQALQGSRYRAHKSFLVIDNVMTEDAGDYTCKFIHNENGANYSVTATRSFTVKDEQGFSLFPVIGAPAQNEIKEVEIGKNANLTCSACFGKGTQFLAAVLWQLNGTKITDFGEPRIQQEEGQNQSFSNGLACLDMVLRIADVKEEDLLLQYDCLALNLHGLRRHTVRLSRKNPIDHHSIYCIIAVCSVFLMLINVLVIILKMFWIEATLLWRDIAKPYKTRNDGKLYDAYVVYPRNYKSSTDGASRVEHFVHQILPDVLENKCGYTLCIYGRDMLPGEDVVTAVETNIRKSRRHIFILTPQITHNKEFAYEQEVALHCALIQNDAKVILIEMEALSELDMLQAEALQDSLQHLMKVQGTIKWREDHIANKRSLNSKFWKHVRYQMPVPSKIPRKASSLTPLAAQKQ

T2: Human ST2-his (human, UniProt Q01638-2 19-328, limits assumed)
T2 construct: Expressed in CHO-K1; The printed range starts at Met1; also called human ST2 fused with a 6-histidine tag at the C-terminus
T2 sequence: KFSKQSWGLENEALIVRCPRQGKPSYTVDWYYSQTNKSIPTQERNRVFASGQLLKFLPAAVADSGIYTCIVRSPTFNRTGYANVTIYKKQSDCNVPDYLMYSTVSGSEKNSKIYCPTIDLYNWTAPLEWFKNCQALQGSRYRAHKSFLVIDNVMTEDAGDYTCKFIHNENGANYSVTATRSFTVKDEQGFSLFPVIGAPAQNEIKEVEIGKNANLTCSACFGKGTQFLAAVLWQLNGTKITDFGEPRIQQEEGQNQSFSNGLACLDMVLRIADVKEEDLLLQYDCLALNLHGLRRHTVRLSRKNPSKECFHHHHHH

B1: 5888-116-H0L1 (antibody, human IgG4 S228P, kappa, V domains shown)
VH: QVQLVQSGAEVKKPGASVKVSCKASGYTFTDSEMYWVRQAPGQGLEWMGAIDPETGDTAFNQKFKGRVTMTRDTSTSTVYMELSSLRSEDTAVYYCARAFDNDNDDGFAYWGQGTMVTVSS
VL: DIQMTQSPSSLSASVGDRVTITCSASSSVNYMHWYQQKPGKAPKRLIYDTSKLASGVPSRFSGSGSGTDYTFTISSLQPEDAATYYCQQWSSNPLTFGQGTKLEIKR
notes: Humanized antibody
B2: 5886-156-H1L0 (antibody, human IgG4 S228P, kappa, V domains shown)
VH: QVQLQESGPGLVKPSQTLSLTCTVSGYSITSDYAWNWIRQPPGKGLEWIGYIDYSGSTTYNPSLKSRVTISRDTSKNQFSLKLSSVTAADTAVYYCASTVIDSMDYWGQGTLVTVSS
VL: DIVLTQSPASLAVSPGQRATITCRASKSVSTSGHSYMHWYQQKPGQPPKLLIYLASNLESGVPARFSGSGSGTDFTLTINPVEANDTANYYCQHSREFPFTFGQGTKVEIKR
notes: Humanized antibody expressed in CHO-K1, purified by protein A
B3: 5887-41-H1L0 (antibody, human IgG4 S228P, kappa, V domains shown)
VH: B2 VH with N36D, D53R, S57D, T59Y, S98T, V100M, I101M, S103T
VL: B2 VL with H34N, F100L, V108L
notes: Humanized antibody
B4: 5888-379-H2L1 (antibody, human IgG4 S228P, kappa, V domains shown)
VH: QVQLVQSGAEVKKPGASVKVSCKASGYTFINYGMNWVRQAPGQRLEWMGWINTYIGEPTYGDNFKGRVTITRDTSASTAYMELSSLRSEDTAVYYCAREGDAFAYWGQGTLVTVSS
VL: DIQMTQSPSSLSASVGDRVTITCKSSQSLLYSGNQNNYLAWYQQKPGKVPKLLIYGASTRESGVPSRFSGSGSGTDFTLTISSLQPEDLATYYCQNDHSYPYTFGGGTKVEIKR
notes: Humanized antibody

Target: T1, ST2 on the effector cells (KU812, …)
Assay: cell-based or functional assay

First: B1
Second: B2
The “IC50, inhibition of KU812-IL5 production promoted by IL-33 (human IL33-his)” value of the first is 3.8-fold lower: 0.00929 mg/L for the first, 0.0354 mg/L for the second.

B3 and B4 are within 1.5-fold of each other in “IC50, inhibition of KU812-IL5 production promoted by IL-33 (human IL33-his)” value: 0.0699 mg/L for the first, 0.0839 mg/L for the second.

Compared with B1, B2 is lower in “Maximum inhibition rate, KU812-IL5 production by IL-33” value: 98.3% for the first, 98.1% for the second.

Compared with B3, B4 is higher in “Maximum inhibition rate, KU812-IL5 production by IL-33” value: 97.3% for the first, 98% for the second.

Compared with B1, B2 is lower in “Relative activity compared with CNTO7160, KU812-IL5 production by IL-33” value: 656% for the first, 181% for the second.

First: B3
Second: B4
The “Relative activity compared with CNTO7160, KU812-IL5 production by IL-33” value of the first is lower: 91.7% for the first, 121% for the second.

Target: T1, ST2 on the effector cells (KU812, …)
Assay: cell-based or functional assay
Remark: another data set of the same source

First: B1
Second: B2
The “IC50, inhibition of activation of KU812-NF-κB reporter gene by IL33” value of the first is 37-fold lower: 0.013 mg/L for the first, 0.478 mg/L for the second.

With B3 the “IC50, inhibition of activation of KU812-NF-κB reporter gene by IL33” value was 0.0554 mg/L.

First: B1
Second: B2
The “Maximum inhibition rate, KU812-NF-κB reporter gene” value of the first is higher: 95.7% for the first, 92.5% for the second.

In the case of B3, the “Maximum inhibition rate, KU812-NF-κB reporter gene” value is reported as 89.2%.

Going from B1 to B2, the “Relative activity compared with CNTO7160, KU812-NF-κB reporter gene” value falls from 1540% to 41.9%.

B3 was tested, and the “Relative activity compared with CNTO7160, KU812-NF-κB reporter gene” value was 362%.

Target: T1, ST2 on the effector cells (KU812, …)
Assay: cell-based or functional assay
Remark: another data set of the same source

Going from B1 to B2, the “IC50, inhibition of KU812-IL5 production promoted by oxidized IL33” value rises from 0.0036 mg/L to 0.0285 mg/L (7.9-fold).

B3 and B4 are within 1.5-fold of each other in “IC50, inhibition of KU812-IL5 production promoted by oxidized IL33” value: 0.0337 mg/L for the first, 0.0228 mg/L for the second.

First: B1
Second: B2
The “Maximum inhibition rate, KU812-IL5 production by oxidized IL33” value of the first is higher: 102% for the first, 101% for the second.

B3 and B4 are the same in “Maximum inhibition rate, KU812-IL5 production by oxidized IL33” value: 101% for the first, 101% for the second.

First: B1
Second: B2
The “Relative activity, KU812-IL5 production by oxidized IL33” value of the first is higher: 614% for the first, 77.5% for the second.

First: B3
Second: B4
The “Relative activity, KU812-IL5 production by oxidized IL33” value of the first is lower: 65.4% for the first, 96.8% for the second.

Target: T1, ST2 on the effector cells (KU812, …)
Assay: cell-based or functional assay
Remark: another data set of the same source

Compared with B1, B2 is 6.1-fold higher in “IC50, inhibition of KU812-IL5 production promoted by reduced IL33” value: 0.124 mg/L for the first, 0.752 mg/L for the second.

First: B3
Second: B4
The “IC50, inhibition of KU812-IL5 production promoted by reduced IL33” value of the first is 4.1-fold lower: 0.706 mg/L for the first, 2.87 mg/L for the second.

Compared with B1, B2 is higher in “Maximum inhibition rate, KU812-IL5 production by reduced IL33” value: 75.1% for the first, 93.4% for the second.

First: B3
Second: B4
The “Maximum inhibition rate, KU812-IL5 production by reduced IL33” value of the first is lower: 78.6% for the first, 96.7% for the second.

Compared with B1, B2 is lower in “Relative activity, KU812-IL5 production by reduced IL33” value: 1180% for the first, 195% for the second.

Going from B3 to B4, the “Relative activity, KU812-IL5 production by reduced IL33” value falls from 208% to 51.1%.

Target: T1, ST2 on the effector cells (KU812, …)
Assay: cell-based or functional assay
Remark: another data set of the same source

Compared with B1, B2 is 4.9-fold higher in “IC50, inhibition of HUVEC-IL6 production promoted by IL33” value: 0.832 mg/L for the first, 4.05 mg/L for the second.

Compared with B3, B4 is 20-fold higher in “IC50, inhibition of HUVEC-IL6 production promoted by IL33” value: 1.31 mg/L for the first, 26.1 mg/L for the second.

First: B1
Second: B2
The “Maximum inhibition rate, HUVEC-IL6 production by IL33” value of the first is higher: 92.6% for the first, 87.9% for the second.

First: B3
Second: B4
The “Maximum inhibition rate, HUVEC-IL6 production by IL33” value of the first is higher: 93.2% for the first, 71.6% for the second.

First: B1
Second: B2
The “Relative activity, HUVEC-IL6 production by IL33” value of the first is higher: 328% for the first, 67.3% for the second.

First: B3
Second: B4
The “Relative activity, HUVEC-IL6 production by IL33” value of the first is higher: 208% for the first, 10.4% for the second.

Target: T1, ST2 on the effector cells (KU812, …)
Assay: cell-based or functional assay
Remark: another data set of the same source

First: B1
Second: B2
The “IC50, inhibition of HMC-1 IL8 production promoted by IL33” value of the first is 32-fold lower: 0.00551 mg/L for the first, 0.177 mg/L for the second.

First: B3
Second: B4
The “IC50, inhibition of HMC-1 IL8 production promoted by IL33” value of the first is 1.9-fold lower: 0.123 mg/L for the first, 0.23 mg/L for the second.

Compared with B1, B2 is lower in “Maximum inhibition rate, HMC-1 IL8 production by IL33” value: 90.6% for the first, 81% for the second.

Going from B3 to B4, the “Maximum inhibition rate, HMC-1 IL8 production by IL33” value rises from 77.8% to 90.2%.

First: B1
Second: B2
The “Relative activity, HMC-1 IL8 production by IL33” value of the first is higher: 1830% for the first, 56.9% for the second.

First: B3
Second: B4
The “Relative activity, HMC-1 IL8 production by IL33” value of the first is higher: 81.6% for the first, 43.8% for the second.

Target: Human ST2-fc (human) (UniProt Q01638)
Assay: competition ELISA, coated ST2-fc, competitor IL33-his

Going from B1 to B2, the IC50 rises from 0.0204 mg/L to 1.22 mg/L (60-fold).

B3 and B4 are within 1.5-fold of each other in IC50: 0.58 mg/L for the first, 0.427 mg/L for the second.

Going from B1 to B2, the Maximum inhibition rate falls from 94.1% to 89.2%.

Compared with B3, B4 is lower in Maximum inhibition rate: 92.8% for the first, 84.8% for the second.

Compared with B1, B2 is lower in Relative activity compared with CNTO7160: 5200% for the first, 103% for the second.

First: B3
Second: B4
The Relative activity compared with CNTO7160 of the first is higher: 216% for the first, 206% for the second.

Target: T2, Human ST2-his
Assay: SPR Biacore X100, ratio of kd at pH 5.5 to kd at pH 7.4
Protocol: (§1) The experiment on the interaction between the anti-human ST2 antibodies and human ST2-his was performed using Biacore X100.
(§2) Each anti-human ST2 antibody was diluted to 2 µg/mL and captured on the surface of a protein A chip for a capture time of 60 s. Following the antibody capture, a solution of human ST2-his (2-fold gradient dilution from a starting concentration of 20 nM, to obtain 6 concentrations in total) was injected. Association was monitored for 180 s and dissociation was monitored for 700 s, and the sensor surface was regenerated by injecting a solution of glycine at pH 2.0. Kinetic data were analyzed using a simple 1:1 binding model.

Compared with B1, B2 is lower in “kd ratio of pH 5.5/pH 7.4” value: 3.02 for the first, 1.03 for the second.

Going from B3 to B4, the “kd ratio of pH 5.5/pH 7.4” value rises from 1 to 11.9.

Target: T2, Human ST2-his
Assay: SPR Biacore X100, antibody captured on protein A chip, human ST2-his injected, pH 7.4
Protocol: as §1, §2

B1 and B2 are within 1.5-fold of each other in Kd: 0.259 nM for the first, 0.275 nM for the second.

Going from B3 to B4, the Kd rises from 0.214 nM to 0.495 nM (2.3-fold). The first binds more tightly here.

Compared with B1, B2 is 1.7-fold lower in koff: 0.000464 s⁻¹ for the first, 0.000272 s⁻¹ for the second.

First: B3
Second: B4
The koff of the first is 4.9-fold lower: 9.98e-05 s⁻¹ for the first, 0.000485 s⁻¹ for the second.

Going from B1 to B2, the kon falls from 1.79e+06 M⁻¹ s⁻¹ to 990000 M⁻¹ s⁻¹ (1.8-fold).

First: B3
Second: B4
The kon of the first is 2.1-fold lower: 467000 M⁻¹ s⁻¹ for the first, 979000 M⁻¹ s⁻¹ for the second.

Target: T2, Human ST2-his
Assay: SPR Biacore X100, antibody captured on protein A chip, human ST2-his injected, dissociation at pH 5.5
Protocol: as §1, §2

First: B1
Second: B2
The Kd of the first is 1.7-fold higher: 0.474 nM for the first, 0.276 nM for the second.

Going from B3 to B4, the Kd rises from 0.161 nM to 1.67 nM (10-fold).

Going from B1 to B2, the koff falls from 0.0014 s⁻¹ to 0.000279 s⁻¹ (5-fold).

Compared with B3, B4 is 57-fold higher in koff: 0.0001 s⁻¹ for the first, 0.00575 s⁻¹ for the second.

First: B1
Second: B2
The kon of the first is 2.9-fold higher: 2.95e+06 M⁻¹ s⁻¹ for the first, 1.01e+06 M⁻¹ s⁻¹ for the second.

First: B3
Second: B4
The kon of the first is 5.6-fold lower: 622000 M⁻¹ s⁻¹ for the first, 3.46e+06 M⁻¹ s⁻¹ for the second.
